Test results: a protein production outcome set (Wang et al. 2014)

Test: label from the status in PepcDB records

Row | Sequence | protein production
1 | MNEELIKEKNFSDSVLSSYRMSLDHKKLQNKMIDNMLFRDISGGKKRTFVEEVEDNEEKNNKSAQKCIDGNDKNFIESRKKALENFQQNENNYDCTYKTIKKKNISGCNTTTKLKDVNSSEECQLCLMPNSDSLHGNFPPTFYKLTCDHIFHLMCLYETVIRRECRKTCCICHNELSENDKNEIINKVKLEKKENEKKSKLLFKVMKLQAENKDYPRKDICS | failed
2 | MLIGIDLGTTNSAVALWHEGEARLVPNSLGALLTPSAVSVLQDGTTLVGAAAFERMAAKDGAAATSFKRLLGTDRKVRLGRKEFSAEDLSALVLQSLCADVEAHTGERPTEAVITVPAYFNDRQRKATRRAGELAGLSVRRLINEPTAAALAFGLKDKAEREPFLVFDLGGGTFDVSIVEMFEGIVEVRASAGDNRLGGDDFNGALAMAVKGRLDPDERLATLGEARAQALLLQAAERTRRALTDAPEAEFAVTAGDERLSTTVTASEFEAQAEGLLRRLRDPVVRALRDSQIDAASLSEIVLVGGATRMPLVRKAITRLFGRFPNASVHPDHAVALGAAIQGGLIARDGGLEEIRITDVCPFTLGIETAEHSVRGTIQQGLFSPIIERNTPVPVSRSGVYSTMGDGQKQIAVHIYQGEAREVSGNVKLGTLSVPVPSRPAGEVSIDVRFSYDSSGLLEVDVEVPLTGTRHNLVIIDEEDRKAAKDLDARRKALAALKHHPREEAANQLLLARAERCYEEFLGDVRAVIGGRTLSFTTALDSQDPRRIADAAAELAELLDMLEANPVL | failed
3 | DDAGKTAIYWLGYDLPPEIPTIVILHTITGTPSSMRELVRDLHQHTGWRIALCVRRGHADLEFSVPRFNLFGSVSDLKQQLDYIQNHFPQSNLYGVGSSAGSGLLVRYLGEEADEAYFKAAFAFCPGYNTETGFEKVHPVYSQYMAKKLLKTFVYKYIDSWQHVENLEEVLSSKNLTEFHLRYYKLAGFKNYQEYSLATNPMHVFKNIKIPLMVLNSQDDPVCHIDNFEPYIPEIQKLSNIVVVTTKKGSHCAFYEGWTPQSWASRLMANYFLQHHQ | failed
4 | MISIPVAQQQKLPRLVLPRVYGFPPNRETLGGTAYLIVENDGNTLIDSPPWTDGSQHWLREQGGVKRLILTHRGAIARVRAIQDTFDCEVMIHAQEAYLLPQVTVTPFNHHLAIGETLEILWTPGHSPGSACVYWSCQGGVLFTGRHLLPTPTGELAPIKTATTFHWPRQLRSVEALKAFCRQKSLSYLCPGANMGFLRGTLAIANAQAVLQGLSVDNLLCDKFLEHHHHHH | failed
5 | MEALAMAGVDYQEWGLSIEEWELQESVVPLHLLADDFKEEEQEEDHQDNDDDDRVLDGLAVKQSVTRDIRASVGKFIEQSMSHMIVHLKQLKFLTLLLENFLFTHVLDFLL | failed
6 | ISKASATRHSQLVTHACRLIETSDPVPSLGQLSARLAVSPFHLHRLFKAETGV | failed
7 | RQRSLSTSGESLYHVLGLDKNATSDDIKKSYRKLALKYHPDKNPDNPEAADKFKEINNAHAILTDATKRNIYDKYGSLGLYVAEQFGEENVNTYFV | not failed
8 | MEVSEGIEIIRGDPRRALIKLSGPLIVAMLLTSIYNLVDAVWVAGLGGEALAAIGFVTPIYMILVGLSNGLGAGAASSVSRCLGAGDEEGMNNSASHTIIITLAVSIILTVIIEILLRDILLSLGAAGALKPAMEYGSVVFAGTLFTLFPGAAYGILRSEGDARRPMYAMGLSAVLNMVLDPILIYTAGWGIAGAAWATVISQLLVSLLIIYWFLAGRTFTSIGWSHFRADRGVVWSILSVTIPASAEFLVMSMVTALLNWILTSVAGTSAVAVYSAGWRIVMLAIVPVISVATALVSVSGVAYGSRNFENLEVAHGYSIRLGLLIAGATAALTFVLAPWIAWIFSYSQASSHLAPRITGFLRVICLFYIFLPPGIMSGSIFQGAGRGMTSLMLSVIRQVLLVAVFAYLLAVTLGLGEVGVWWGVVAGDIGGSLVAYLWARLFIGRLRRYAA | failed
9 | MKIGVDAGGTLIKIVQEKNGERTYSTRLTTEIEEVIQWLNQQDCNNINLTGGQAAMINEQLNCESRVFVEFDAAAKGLEILLEEQGHFLDDYIFTNVGTGTSLHFSNGKAQKRVGGIGTGGGMIQGLGYLLTGISNYKQLTDTAQNGNRDIIDLKVKHIYKDSEPPISGDLTAANFGNVLHHLDESFTDADKLASVIAVVGEVITTMSITVAREHNTKNVAYIGSSFHNNDLLKDVVKDYTVLRGCEPYYIEHGAFSGALGSIHLLEHHHHHH | failed
10 | MLAKIIMKNFKSFKNETVIDFTRINYKFLENNVSNNGVLKGVAFYGANASGKSNVLWAIRFLLDELFGEEKNPVTFMKCLFSDEPEFSLQYFFVIESREIHYLIDFHTEKGIINEELYLDRKLLLQRMGSTAKSGITEKKVYTDLNNKVLFLRTVYFNTGFSGDDKDNNANNNILRQWFDYMQNSIYVNPFLHRGIAYGKQDVVLNKYLENEGVKEINRFFTKYNFEYTLDYLNERKVKDVTEIVNDDNIKLVFFNRKGVNVPIPYVLESHGNQNLLNILPCFLRVVQNSGMLLVDEFSGGLHNELERLLVNYFFLEHHHHHH | failed
11 | MAEPSQAPTPAPAAQPRPLQSPAPAPTPTPAPSPASAPIPTPTPAPAPAPAAAPAGSTGTGGPGVGSGGAGSGGDPARPGLSQQQRASQRKAQVRGLPRAKKLEKLGVFSACKANETCKCNGWKNPKPPTAPRMDLQQPAANLSELCRSCEHPLADHVSHLENVSEDEINRLLGMVVDVENLFMSVHKEEDTDTKQVYFYLFKLLRKCILQMTRPVVEGSLGSPPFEKPNIEQGVLNFVQYKFSHLAPRERQTMFELSKMFLLCLNYWKLETPAQFRQRSQAEDVATYKVNYTRWLCYCHVPQSCDSLPRYETTHVFGRSLLRSIFTVTRRQLLEKFRVEKDKLVPEKRTLILTHFPKFLSMLEEEIYGANSPIWESGFTMPPSEGTQLVPRPASVSAAVVPSTPIFSPSMGGGSNSSLSLDSAGAEPMPGEKRTLPENLTLEDAKRLRVMGDIPMELVNEVMLTITDPAAMLGPETSLLSANAARDETARLEERRGIIEFHVIGNSLTPKANRRVLLWLVGLQNVFSHQLPRMPKEYIARLVFDPKHKTLALIKDGRVIGGICFRMFPTQGFTEIVFCAVTSNEQVKGYGTHLMNHLKEYHIKHNILYFLTYADEYAIGYFKKQGFSKDIKVPKSRYLGYIKDYEGATLMECELNPRIPYTELSHIIKKQKEIIKKLIERKQAQIRKVYPGLSCFKEGVRQIPVESVPGIRETGWKPLGKEKGKELKDPDQLYTTLKNLLAQIKSHPSAWPFMEPVKKSEAPDYYEVIRFPIDLKTMTERLRSRYYVTRKLFVADLQRVIANCREYNPPDSEYCRCASALEKFFYFKLKEGGLIDK | failed
12 | MKRPGAIPTVQIDNERVKVTEWRFPPGGETGWHRHSMDYVVVPMTTGPLLLETPEGSVTSQLTRGVSYTRPEGVEHNVINPSDTEFVFVEIEIKAA | not failed
13 | MERRGELHRVRVPVSAELEIAEIADRVVKAGGPALLFERVVGKDFPVAIGLFGTRARTAFALGVEDLDELARKVEALLALEPGKGGLSALLGLLPKLPLLRGFFPRRVRRAPVQEVVWRGEEVDLRRLPVLKCWPLDGGPFLTLPLVITKDPETGELNLGMYRMQVLDPRSTAMHWQWHKVGRRHLEKAKRLGRRLEVAVALGGDPVLTYAATAPLPPLPGVSEFHLAGFLRGAPIELARGVTVDLPVPAEAEFVLEGYIDPEEPLVEEGPFGDHTGFYTPVDLYPRFHVTAVTHRKGAIYPATLVGVPPMEDAYLIEATERLFLPALRLVLPEVVDYHMPPEGVAHNWVNVSLRKAYPGQAYKVAYGMLGLGQMMFAKVIVAVDADVPVKPGFAALLEALKHALPGRDTLLLRGPVDVLDHSSRAFAFGGKLVIDGTRKLPEEGGEAPFVPKAHPGLPEDPEVLDQRQWPGLWGAVLAKRRPHQAWEVAERLLRAPQSAGIRLLLLADEDTALSPEELLWYVLNNVDPERDARVMPGVEGPVLVLDGTRKLPEEGFPRVWPERIRMDPKVKALVEARWAEYGLGWTTVGE | failed
14 | GSQPKLTEAVSLMEANIEEPLSTDDIAYYVGVSRRQLERLFKQYLGTVPSKYYLELRLNRARQLLQQTSKSIVQIGLACGFSSGPHFSSTYRNHFNITPREERAQRAQPGAL | not failed
15 | MKVAVLDFGKTNSKLFVFGQDGGILDERRTQPKWTHQDGFSVLDEAALHDWALGAVTEAVENHGVEGVMVSGHGCTFALVDDAALTHPILDYEQEPPAEIAARIDHRIPDFAETFSPRLPLGFNYGRHMLWVQEVDPDAFAAAKSILGYPQYWSWRLGGRPVSEVSYLGCHSHLWAPRSQDFSSLVDAEGWRGQMPAFARAGAVIGERRLGSSSRPIAIHNGVHDSNAALHAYRRQELGPLTVVSTGTWVVVLNPGCPLDVLDRDRDMLVNVDVDGGPVPTIRFMGGREFAAISAGWQGAIPPGAVQQAIDAGIMALPSFAPGGPMPDRPGRLVGRTPYAAERAAAALLYVALMVDLCLDLIQSQDTVIVDGGLNAGGLLAGLLAELRPGQAFLQGATLEGSATGAAALAFESVGRDFVAEAPEPVHAARFAGLAGYRDAWRDRVGGQGTAIKAAGGARLEHHHHHH | failed
16 | MFSQWVFLSVLALAVPSFAWAEDAVSDLAREQSKAEQGDKRGDELFAEFTRLRQAAETGEPQALFDFGAYFYQQQNYASAREWWGKAAAAGMVRAQIQLAMLYRDGDGGPQDKTEAARWFRKAAEQGDAAAQNEMGVLYWRGEGVDQDRVKAGTWFERAAASGSEDAETNLGWFYLDDSQGVYSATSDEEAALLDRYAGSREKAFQWFCKAATQGDARAQFKVGEAYWNGSGAGMNKLQARLWLEKAAQQQDADAIAWLESAANAAWYTRLENWIHAALDGELSGVADCSGAADRRHSGRGMEGAPSDPEAVEASAEDAQQAVEAASQ | failed
17 | TVDWASMKWARPYLNTNSLGANPKQPGDVAKVGDLVRLLRQDDGSLKFSQIPVAQSALVSLDPQNGAIRALVGGFAFEQSNYNRAMQAKRQPGSSFKPFIYSAALDNGYTASSLVNDAPIVFVDEYLDKVWRPKNDTNTFLGPIRLREALYKSRNLVSIRLLQALGVDSTIDYITRFGFAKQDLPRNLSLALGTATLTPMEIATGWATFANGGYKVSPYLIQTIENRDGQTLFVANPPSVPVNDVNTAPNTSTFAVHDSPSVVASPPGSPAQPQAPAVAERIVDGRTTYILNSMLQDVIKRGTGRRALSMNRPDIAGKTGTTNDSKDAWFSGYNADYVTTVWSGFDQPESLGRHEFGGTVSLPIWMDYMSAALKDKPPHQQ | failed
18 | MSNFSEGEIFIANIEKKSLECRENDEIVVLKICELCNIIYPIFNKIFGNGFVGDTLKKDLKNSSSQVQRAIEKFPEETKYVSMLYSYNINKYENMEKLKRDLDNGIISFLWMKRTLEFIITFLEKCYITCSETKLSICAQEAYNEVLKKYHGFITSKIVKLCLKLSPTKDILTKKLGFQTHQQASTVLQKCLSITKPLVRDISVTIEKFNCDFEEKI | failed
19 | MYRTTGPALRPGGFELTDWAVEHCRFQAGDRILDVGCGRGATVDRLRSHYHLEAYGIDPSATLLTLGQETYPDLPLSKARGEDIPFTNSCFDGVFVECSLSLMTDPDQALSEIRRVLKVKGKLIIHDVYARNPQGTPDLRELSIGTCIRNALVKEDLEHGLESKGLRTIHWQDHSPLLNRLMMELIMTHGSMSAFWLKSTHCSADSNRVQAALKKAKVGYFQLIAEKEAEKEAEHCPVR | failed
20 | MGSIEEVLLEERLIGYLDPGAEKVLARINRPSKIVSTSSCTGRITLIEGEAHWLRNGARVAYKTHHPISRSEVERVLRRGFTNLWLKVTGPILHLRVEGWQCAKSLLEAARRNGFKHSGVISIAEDSRLVIEIMSSQSMSVPLVMEGARIVGDDALDMLIEKANTILVESRIGLDTFSREVEELVECF | not failed
